The target in one test is H3 HA (Influenza A virus H3N2, probably A/Hong …, UniProt Q91MA7, strain). The test can be described thus: SEC. The settings on record: both partners purified.
The target of test [1] is H3 HA (recombinant HA of the panel) (Influenza A virus H3N2, probably A/Hong …, UniProt Q91MA7, biotinylated (in the BLI assay)). Nature of the test: BLI. The following applies: both partners purified.

B1: PN-SIA28 Fab (Fab, V domains shown)
VH: QVQLVESGGGVVQPGRSLRLSCAASGFPFSSYGMHWVRQAPGKGLEWVAGVSYDGSYKYYADSVKGRFTISRDSSKSTLYLQMNSLRPEDTAVYYCARPSAIFGIYIILNGLDVWGQGTTVTVSS
VL: EIVLTQSPSSVSASVGDRVTITCRATQGISSWLAWYQQKPGKPPKLLIFGASSLQSGVPSRFSGSGSGTDFTLTISSLQPEDFATYFCQQAHSFPLTFGGGTKVEIK
For B1, the binding result in the test with H3 HA is given as “binds”.

B2: PN-SIA28 Fab (Fab, V domains shown)
VH: B1 VH
VL: B1 VL
notes: also called PN-SIA28 Fab fragment
On to B2, for which the binding result in test [1] is recorded as “binds”.

Values taken from article PMC9734383 (Nature Communications, 2022).
